{
  "source": "paper PMC4867592",
  "about": "“Targeting multiple response regulators of Mycobacterium tuberculosis augments the host immune response to infection” (Scientific Reports, 2016)",
  "test_in_all_cases": "EMSA",
  "key": {"RegX3 R202A R202A": {"biological_target": "T1, RegX3 R202A R202A (UniProt P9WGL9)", "T1 sequence": "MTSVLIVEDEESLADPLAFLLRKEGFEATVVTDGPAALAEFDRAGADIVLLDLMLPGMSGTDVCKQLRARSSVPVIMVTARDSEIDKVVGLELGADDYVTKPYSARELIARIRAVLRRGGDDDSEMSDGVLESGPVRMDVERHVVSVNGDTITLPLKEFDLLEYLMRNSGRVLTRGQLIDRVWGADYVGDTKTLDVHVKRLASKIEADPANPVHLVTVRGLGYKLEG"}, "RegX3 L201A L201A": {"biological_target": "T2, RegX3 L201A L201A (UniProt P9WGL9)", "T2 sequence": "T1 sequence with L201A, A202R"}, "RegX3 K204A K204A": {"biological_target": "T3, RegX3 K204A K204A (UniProt P9WGL9)", "T3 sequence": "T1 sequence with A202R, K204A"}},
  "note": "Where a chain is given by its changes, count along the chain named.",
  "data": [
    {"sequence": "ACCGGCTTGGGACCGGCACCGCGGTACTGTGTGCGTTCGGCACCGCGCTGCACCCGCGGTTCGGGCCGGATTCGTCCGCGCGGCACCGCCGTTCGGGCGC (double strand) [ppK1 promoter fragment]", "values": [
      {"measurement": "binding", "setting": "RegX3 R202A R202A", "result": "binds"},
      {"measurement": "binding", "setting": "RegX3 L201A L201A", "result": "no binding"},
      {"measurement": "binding", "setting": "RegX3 K204A K204A", "result": "no binding"}
    ]}
  ]
}
